Experiment [1] deals with T1, human interleukin 23 (Homo sapiens, UniProt Q9NPF7;P29460, saccharidic chain of the complex type at Asn 200 (GlcNAc2-Man3 core seen in the crystal)).
T1 construct: interleukin 23 subunit p19, human; p40 subunit shared by IL12 and IL23, human; Heterodimer with a disulfide bridge between Cys 54 (p19) and Cys177 (p40); the splenocyte assay used eBioscience hIL23; also called hIL23; IL23; source: bought: R&D Systems Inc. and eBioscience
The experiment is described as follows: SPR; Biacore T100; hIL23 covalently bound to a CM5 chip via amine coupling; purified nanobodies 1 to 300 nM injected for 4 min at 45 µl/min. The note with it: both partners purified.

A further experiment deals with T2, mouse (m) IL23 (Mus musculus (Mouse)., UniProt Q9EQ14;P43432).
T2 construct: interleukin 23 subunit p19, mouse; p40 subunit, mouse; source: bought: R&D Systems Inc
The experiment is described as follows: SPR; species cross-reactivity of the monovalent nanobodies on cyno IL23 and mouse IL23; off-rates compared; set-up not described.

In experiment [2] the target is T3, cynomolgus monkey (cyno) IL23 (Macaca fascicularis (cynomolgus monkey), UniProt H6WS56;H6WS55).
T3 construct: interleukin 23 subunit p19, cynomolgus monkey; construct not described; p40 subunit, cynomolgus monkey; source: produced at Ablynx, Ghent/Zwijnaarde, Belgium
The description is as above.

Experiment [3] concerns the target T4, p40 subunit of human interleukin 23 (human, UniProt P29460, saccharidic chain of the complex type at Asn 200 (GlcNAc2-Man3 core seen in the crystal)).
T4 construct: p40 subunit shared by IL12 and IL23, human; never handled apart from p19; also called IL12-shared p40 subunit; source: bought as part of hIL23 (R&D Systems Inc. or eBioscience)
The experiment is described as follows: crystal structure; hIL23 with nanobodies 37D5, 124C4 and 22E11; sitting drop, 277 K, 16.5% PEG 20 K, 0.1 M MES pH 5.9; two complexes per asymmetric unit; PDB 4GRW. The note with it: both partners purified.

Experiment [4] has as its target T5, biotinylated human interleukin 23 (human, UniProt Q9NPF7 20-189; P29460 23-328, biotin (Sulfo-NHS-LC-Biotin; sites not stated) | biotin (Sulfo-NHS-LC-Biotin; sites not stated)).
T5 construct: interleukin 23 subunit p19, human; p40 subunit shared by IL12 and IL23, human; also called biotinylated hIL23; source: bought: eBioscience; biotinylated using Sulfo-NHS-LC-Biotin (Pierce)
T5 sequence (looked up) 1: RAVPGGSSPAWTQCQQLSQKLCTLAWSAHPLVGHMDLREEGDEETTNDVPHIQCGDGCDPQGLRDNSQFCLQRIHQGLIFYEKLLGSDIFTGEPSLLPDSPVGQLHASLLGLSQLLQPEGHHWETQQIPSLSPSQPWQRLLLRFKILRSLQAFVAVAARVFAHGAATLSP
T5 sequence (looked up) 2: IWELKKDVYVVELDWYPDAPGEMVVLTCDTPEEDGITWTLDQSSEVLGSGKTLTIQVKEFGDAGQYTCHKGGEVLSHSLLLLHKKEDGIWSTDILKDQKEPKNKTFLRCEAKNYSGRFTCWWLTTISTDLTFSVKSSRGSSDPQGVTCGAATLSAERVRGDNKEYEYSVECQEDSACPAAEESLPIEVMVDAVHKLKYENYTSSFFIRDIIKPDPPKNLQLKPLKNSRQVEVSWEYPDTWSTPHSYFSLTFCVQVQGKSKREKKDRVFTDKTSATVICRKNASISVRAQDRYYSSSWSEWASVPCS
The experiment is described as follows: AlphaScreen or HTRF; serial dilutions of purified nanobody (250 nM to 1 pM) preincubated with 500 pM biotinylated hIL23 or 3 nM biotinylated hIL12; IL23R or IL12Rβ1 on acceptor beads via an antihuman Fc monoclonal antibody; streptavidin donor beads; 1 h at room temperature. The note with it: both partners purified.

The target of experiment [5] is T1, human interleukin 23. The experiment can be described thus: cell-based or functional assay.
The target in the next experiment is human interleukin 12 (human, UniProt P29459;P29460). The experiment can be described thus: cell-based or functional assay.
Experiment [6] deals with T6, biotinylated human interleukin 12 (human, UniProt P29459;P29460, biotin (Sulfo-NHS-LC-Biotin; sites not stated) | biotin (Sulfo-NHS-LC-Biotin; sites not stated)).
T6 construct: p35 subunit of IL12, human; p40 subunit shared by IL12 and IL23, human; also called biotinylated hIL12; source: bought: R&D Systems Inc; biotinylated using Sulfo-NHS-LC-Biotin (Pierce)
The experiment is described as follows: AlphaScreen or HTRF; serial dilutions of purified nanobody (250 nM to 1 pM) preincubated with 500 pM biotinylated hIL23 or 3 nM biotinylated hIL12; IL23R or IL12Rβ1 on acceptor beads via an antihuman Fc monoclonal antibody; streptavidin donor beads; 1 h at room temperature. The note with it: both partners purified.

For experiment [7], the target named is T7, biotinylated human interleukin 23 (human, UniProt Q9NPF7;P29460, biotin (Sulfo-NHS-LC-Biotin; sites not stated) | biotin (Sulfo-NHS-LC-Biotin; sites not stated)).
T7 construct: interleukin 23 subunit p19, human; p40 subunit shared by IL12 and IL23, human; also called biotinylated hIL23; source: bought: eBioscience; biotinylated using Sulfo-NHS-LC-Biotin (Pierce)
The description is as above. The note with it: both partners purified.

Another experiment has as its target T8, IL12Rβ-Fc chimera (human, UniProt P42701 24-545).
T8 construct: interleukin 12 receptor subunit beta 1, human; The materials name it 'IL12Rβ-Fc chimera'; the assay and results name IL12Rβ1 / hIL12Rβ1; also called IL12Rβ1; hIL12Rβ1; source: bought: R&D Systems Inc
The experiment is described as above. The note with it: both partners purified.

Experiment [8] addresses T9, p40 subunit of human interleukin 23 (human, UniProt P29460 23-328, saccharidic chain of the complex type at Asn 200 (GlcNAc2-Man3 core seen in the crystal)).
T9 construct: p40 subunit shared by IL12 and IL23, human; never handled apart from p19; also called IL12-shared p40 subunit; source: bought as part of hIL23 (R&D Systems Inc. or eBioscience)
T9 sequence (looked up): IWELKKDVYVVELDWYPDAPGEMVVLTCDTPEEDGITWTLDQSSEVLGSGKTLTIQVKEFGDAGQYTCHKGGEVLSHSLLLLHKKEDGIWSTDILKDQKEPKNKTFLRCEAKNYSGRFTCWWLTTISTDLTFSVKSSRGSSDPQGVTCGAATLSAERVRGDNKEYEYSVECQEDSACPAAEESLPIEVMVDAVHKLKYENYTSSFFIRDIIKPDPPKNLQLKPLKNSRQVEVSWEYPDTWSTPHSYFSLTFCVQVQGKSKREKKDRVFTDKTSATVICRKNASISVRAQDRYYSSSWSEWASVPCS
The experiment is described as follows: crystal structure; hIL23 with nanobodies 37D5, 124C4 and 22E11; sitting drop, 277 K, 16.5% PEG 20 K, 0.1 M MES pH 5.9; two complexes per asymmetric unit; PDB 4GRW. The note with it: both partners purified.

T2 sequence (Q9EQ14 22-196, chain 1 of 2): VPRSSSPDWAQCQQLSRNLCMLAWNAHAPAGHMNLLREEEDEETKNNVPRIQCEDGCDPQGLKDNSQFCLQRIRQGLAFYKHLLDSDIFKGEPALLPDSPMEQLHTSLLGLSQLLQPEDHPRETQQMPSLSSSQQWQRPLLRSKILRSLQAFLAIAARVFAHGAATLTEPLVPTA
T2 sequence (P43432 23-335, chain 2 of 2): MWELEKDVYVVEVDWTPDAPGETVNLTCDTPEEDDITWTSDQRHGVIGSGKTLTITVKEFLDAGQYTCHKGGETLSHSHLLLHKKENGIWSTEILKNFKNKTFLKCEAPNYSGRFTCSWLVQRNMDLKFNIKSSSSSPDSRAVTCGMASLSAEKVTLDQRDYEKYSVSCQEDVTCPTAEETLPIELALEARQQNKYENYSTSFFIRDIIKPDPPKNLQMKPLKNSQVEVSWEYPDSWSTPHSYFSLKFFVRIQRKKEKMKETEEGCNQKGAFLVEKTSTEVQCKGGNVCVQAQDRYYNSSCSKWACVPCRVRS

B1: nanobody 124C4 (VHH)
VHH: EVQLVESGGGLVQPGGSLRLSCAASGFTLDDYAIAWFRQAPGKEREGVSGIDSGDGSAYYADSVKGRFTISSDNAKNTVYLQMNSLRPEDTAVYYCARVRTGWGLNAPDYAMDYWGKGTLVTVSS
notes: nanobody 124C4 (llama VHH); both add C-terminal c-myc and hexa-histidine tags; also called p19− nanobody 124C4; source: E. coli TG1, periplasmic extract (screening); purified (Ni-NTA; Superdex75 for crystallization); not shown: c-myc, C-terminal, kept
As for B1, in the experiment with human interleukin 23 [1], the equilibrium dissociation constant (Kd) was found to be 3.3 nM, the koff came out at 0.00033 s⁻¹ and the association rate constant (kon) turned out to be 100000 M⁻¹ s⁻¹. For the same molecule, the binding result in the experiment with mouse (m) IL23 is “binds”. Besides, in experiment [2], the binding result was “binds”. The binding result in experiment [3] is given as “binds”.

B2: hIL23 receptor (R)-fragment crystallizable region (Fc) (Fc fusion, human, UniProt Q5VWK5 24-355, looked up)
chain: GITNINCSGHIWVEPATIFKMGMNISIYCQAAIKNCQPRKLHFYKNGIKERFQITRINKTTARLWYKNFLEPHASMYCTAECPKHFQETLICGKDISSGYPPDIPDEVTCVIYEYSGNMTCTWNAGKLTYIDTKYVVHVKSLETEEEQQYLTSSYINISTDSLQGGKKYLVWVQAANALGMEESKQLQIHLDDIVIPSAAVISRAETINATVPKTIIYWDSQTTIEKVSCEMRYKATTNQTWNVKEFDTNFTYVQQSEFYLEPNIKYVFQVRCQETGKRYWQPWSSLFFHKTPETVPQVTSKAFQHDTWNSGLTVASISTGHLTSDNRGDIG
notes: interleukin 23 receptor, human; also called hIL23R-Fc; source: bought: R&D Systems Inc
As to B2, the binding result in experiment [4] is “binds”.

B3: nanobody 22E11 (VHH)
VHH: EVQLVESGGGLVQAGGSLRLSCAASGRTFSWSAVGWFRQAPGKEREFVAAIRWSGGSPYYADSVKDRFTISRDNAKNTVYLQMNSLRPEDTAVYLCGETSLFPTSRGSHYDTWGQGTQVTVSS
notes: nanobody 22E11 (llama VHH); both add C-terminal c-myc and hexa-histidine tags; also called p40+ nanobody 22E11; source: E. coli TG1, periplasmic extract (screening); purified (Ni-NTA; Superdex75 for crystallization); not shown: c-myc, C-terminal, kept
As to B3, the “IC50 of inhibition of mIL22 secretion by mouse splenocytes stimulated with 19 pM hIL23” value in the experiment with human interleukin 23 [5] was 186 pM. Moreover, the koff with human interleukin 23 [1] was found to be 0.00023 s⁻¹. Further, the values for the binding result (with mouse (m) IL23; in experiment [2]; in [3]) were “no binding”, “binds” and “binds”, respectively. In addition, the “IC50 of block of hIL12-dependent proliferation of PHA blasts (4 pM hIL12 for stimulation; data not shown)” value in the experiment with human interleukin 12 is 95 pM. The molecule also displayed an IC50 in [6] of 1.3 nM.

B4: nanobody 37D5 (VHH)
VHH: EVQLVESGGGLVQPGGSLRLSCAASGFTLDYLAIGWFRQAPGKEREGVSCVSSSGQYTYYADSVKGRFTISRDNAESTVYLQMNSLKPEDTAVYYCATDPECYRVRGYYNGEYDYWGQGTQVTVSS
notes: nanobody 37D5 (llama VHH); both add C-terminal c-myc and hexa-histidine tags; also called p19+ nanobody 37D5; source: E. coli TG1, periplasmic extract (screening); purified (Ni-NTA; Superdex75 for crystallization); not shown: c-myc, C-terminal, kept
Turning to B4, the “IC50 of inhibition of mIL22 secretion by mouse splenocytes stimulated with 19 pM hIL23; blocks IL23/IL23R” value in the experiment with human interleukin 23 [5] was found to be 19 pM. In addition, in the experiment with human interleukin 23 [1], the Kd turned out to be 0.6 nM, the koff is 0.00018 s⁻¹ and the kon is 320000 M⁻¹ s⁻¹. Further, the binding result in the experiment with mouse (m) IL23 is listed as “no binding”. Besides, the binding result in experiment [2] is recorded as “binds”. Besides, in [3], the binding result was “binds”. In experiment [7], this molecule returned an IC50 of 0.11 nM.

B5: biotinylated human interleukin 12 (complex)
chain 1: RNLPVATPDPGMFPCLHHSQNLLRAVSNMLQKARQTLEFYPCTSEEIDHEDITKDKTSTVEACLPLELTKNESCLNSRETSFITNGSCLASRKTSFMMALCLSSIYEDLKMYQVEFKTMNAKLLMDPKRQIFLDQNMLAVIDELMQALNFNSETVPQKSSLEEPDFYKTKIKLCILLHAFRIRAVTIDRVMSYLNAS
chain 2: IWELKKDVYVVELDWYPDAPGEMVVLTCDTPEEDGITWTLDQSSEVLGSGKTLTIQVKEFGDAGQYTCHKGGEVLSHSLLLLHKKEDGIWSTDILKDQKEPKNKTFLRCEAKNYSGRFTCWWLTTISTDLTFSVKSSRGSSDPQGVTCGAATLSAERVRGDNKEYEYSVECQEDSACPAAEESLPIEVMVDAVHKLKYENYTSSFFIRDIIKPDPPKNLQLKPLKNSRQVEVSWEYPDTWSTPHSYFSLTFCVQVQGKSKREKKDRVFTDKTSATVICRKNASISVRAQDRYYSSSWSEWASVPCS
modifications: biotin (Sulfo-NHS-LC-Biotin; sites not stated) | biotin (Sulfo-NHS-LC-Biotin; sites not stated)
notes: p35 subunit of IL12, human; p40 subunit shared by IL12 and IL23, human; also called biotinylated hIL12; source: bought: R&D Systems Inc; biotinylated using Sulfo-NHS-LC-Biotin (Pierce)
Turning to B5, the binding result with IL12Rβ-Fc chimera is recorded as “binds”.

B6: p19 subunit of human interleukin 23 (natural protein, UniProt Q9NPF7 20-189, looked up)
chain: RAVPGGSSPAWTQCQQLSQKLCTLAWSAHPLVGHMDLREEGDEETTNDVPHIQCGDGCDPQGLRDNSQFCLQRIHQGLIFYEKLLGSDIFTGEPSLLPDSPVGQLHASLLGLSQLLQPEGHHWETQQIPSLSPSQPWQRLLLRFKILRSLQAFVAVAARVFAHGAATLSP
notes: interleukin 23 subunit p19, human; never handled apart from p40; also called IL23p19; hIL23 p19 subunit; source: bought as part of hIL23 (R&D Systems Inc. or eBioscience)
B6: in [8], the binding result is on record as “binds”.
